Source: the supplement of paper PMC6755084

The sequences below were run on F1*sub RNA substrate (template-directed ligation) (assay: fraction ligated after 30 min (ligated reads / total reads); higher = more ligase activity; sequences stand for … in GAGACCGCAACTGAAAAGTTGT…AGTTCTGCACGTAGAAGCAAAAGGC). Settings: 42 °C.
How it was run: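 Templates from an oligo pool were PCR-amplified, transcribed with T7 and gel-purified to give the ribozyme variants. Ligated and unligated products were separated on gel, reverse transcribed using barcoded primers, and read on a MiSeq. A quality filter of ≥20 was applied to core bases. Fraction ligated was taken as ligated reads as a share of all reads per variant.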

Going from TATACTTGTCGTAAGACACTTTGGTGGGTTGA [2d85] to TATACTTGTCGTAAGACACTTTGGTGGTTGA [3d939], the fraction ligated falls from 0.0569 to 0.00845.

First: TATACTTGTCGTAAGACACTTTGTGGGTTGA [3d933]
Second: TATACTTGTCGTAAGACATTGGATGGGTTGA [3d918]
The fraction ligated of the first is lower: 0.0152 for the first, 0.786 for the second.

Compared with TATACTTGTCGTAAGACATTTGATGGGTTGA [3d919], TATACTTGTCGTAAGACATTTGGAGGGTTGA [3d921] is lower in fraction ligated: 0.735 for the first, 0.0163 for the second.

First: TATACTTGTCGTAAGACATTTGGATGGGTTA [3d923]
Second: TATACTTGTCGTAAGACATTTGGATGGGTTG [3d924]
The fraction ligated of the first is lower: 0.0964 for the first, 0.714 for the second.

First: TATACTTGTCGTAAGACATTTGGATGGGTTGA [2d82]
Second: TATACTTGTCGTAAGACATTTGGATGGTTGA [3d922]
The fraction ligated of the first is higher: 0.751 for the first, 0.0978 for the second.

Compared with TATACTTGTCGTAAGACATTTGGTGGGTTGA [3d920], TATACTTGTCGTAAGACCTTGGATGGGTTGA [3d911] is higher in fraction ligated: 0.0527 for the first, 0.777 for the second.

Going from TATACTTGTCGTAAGACCTTTGATGGGTTGA [3d912] to TATACTTGTCGTAAGACCTTTGGAGGGTTGA [3d914], the fraction ligated falls from 0.706 to 0.0249.

Going from TATACTTGTCGTAAGACCTTTGGATGGGTTA [3d916] to TATACTTGTCGTAAGACCTTTGGATGGGTTG [3d917], the fraction ligated rises from 0.059 to 0.719.

Going from TATACTTGTCGTAAGACCTTTGGATGGGTTGA [2d81] to TATACTTGTCGTAAGACCTTTGGATGGTTGA [3d915], the fraction ligated falls from 0.746 to 0.0819.

First: TATACTTGTCGTAAGACCTTTGGTGGGTTGA [3d913]
Second: TATACTTGTCGTAAGACTTTGGATGGGTTGA [3d893]
The fraction ligated of the first is lower: 0.0382 for the first, 0.758 for the second.

Compared with TATACTTGTCGTAAGCACTTGGATGGGTTGA [3d896], TATACTTGTCGTAAGCACTTTGATGGGTTGA [3d897] is higher in fraction ligated: 0.645 for the first, 0.703 for the second.

First: TATACTTGTCGTAAGCACTTTGGAGGGTTGA [3d899]
Second: TATACTTGTCGTAAGCACTTTGGATGGGTTA [3d901]
The fraction ligated of the first is higher: 0.0271 for the first, 0.0196 for the second.

Going from TATACTTGTCGTAAGCACTTTGGATGGGTTG [3d902] to TATACTTGTCGTAAGCACTTTGGATGGGTTGA [2d79], the fraction ligated rises from 0.502 to 0.778.

Compared with TATACTTGTCGTAAGCACTTTGGATGGTTGA [3d900], TATACTTGTCGTAAGCACTTTGGTGGGTTGA [3d898] is higher in fraction ligated: 0.0214 for the first, 0.025 for the second.

First: TATACTTGTCGTAAGCATTTGGATGGGTTGA [3d895]
Second: TATACTTGTCGTAAGCCTTTGGATGGGTTGA [3d894]
The fraction ligated of the first is higher: 0.747 for the first, 0.68 for the second.

First: TATACTTGTCGTAGAACTTTGGATGGGTTGA [3d873]
Second: TATACTTGTCGTAGACACTTGGATGGGTTGA [3d876]
The fraction ligated of the first is higher: 0.831 for the first, 0.61 for the second.

Compared with TATACTTGTCGTAGACACTTTGATGGGTTGA [3d877], TATACTTGTCGTAGACACTTTGGAGGGTTGA [3d879] is lower in fraction ligated: 0.36 for the first, 0.0209 for the second.

First: TATACTTGTCGTAGACACTTTGGATGGGTTA [3d881]
Second: TATACTTGTCGTAGACACTTTGGATGGGTTG [3d882]
The fraction ligated of the first is lower: 0.00736 for the first, 0.232 for the second.

First: TATACTTGTCGTAGACACTTTGGATGGGTTGA [2d77]
Second: TATACTTGTCGTAGACACTTTGGATGGTTGA [3d880]
The fraction ligated of the first is higher: 0.67 for the first, 0.0359 for the second.

Compared with TATACTTGTCGTAGACACTTTGGTGGGTTGA [3d878], TATACTTGTCGTAGACATTTGGATGGGTTGA [3d875] is higher in fraction ligated: 0.0282 for the first, 0.759 for the second.

First: TATACTTGTCGTAGACCTTTGGATGGGTTGA [3d874]
Second: TATACTTGTCGTAGCACTTTGGATGGGTTGA [3d872]
The fraction ligated of the first is lower: 0.616 for the first, 0.787 for the second.

First: TATACTTGTCGTGACACTTTGGATGGGTTGA [3d870]
Second: TATACTTGTCTAAACACTTTGGATGGGTTGA [3d845]
The fraction ligated of the first is lower: 0.708 for the first, 0.791 for the second.

Going from TATACTTGTCTAAGAACTTTGGATGGGTTGA [3d847] to TATACTTGTCTAAGACACTTGGATGGGTTGA [3d850], the fraction ligated rises from 0.765 to 0.766.

Compared with TATACTTGTCTAAGACACTTTGATGGGTTGA [3d851], TATACTTGTCTAAGACACTTTGGAGGGTTGA [3d853] is lower in fraction ligated: 0.719 for the first, 0.0271 for the second.

Compared with TATACTTGTCTAAGACACTTTGGATGGGTTA [3d855], TATACTTGTCTAAGACACTTTGGATGGGTTG [3d856] is higher in fraction ligated: 0.0424 for the first, 0.633 for the second.

First: TATACTTGTCTAAGACACTTTGGATGGGTTGA [2d75]
Second: TATACTTGTCTAAGACACTTTGGATGGTTGA [3d854]
The fraction ligated of the first is higher: 0.797 for the first, 0.0769 for the second.

First: TATACTTGTCTAAGACACTTTGGTGGGTTGA [3d852]
Second: TATACTTGTCTAAGACATTTGGATGGGTTGA [3d849]
The fraction ligated of the first is lower: 0.0368 for the first, 0.811 for the second.

Compared with TATACTTGTCTAAGACCTTTGGATGGGTTGA [3d848], TATACTTGTCTAAGCACTTTGGATGGGTTGA [3d846] is higher in fraction ligated: 0.481 for the first, 0.779 for the second.

Going from TATACTTGTCTAGACACTTTGGATGGGTTGA [3d844] to TATACTTGTGAAGACACTTTGGATGGGTTGA [3d829], the fraction ligated rises from 0.732 to 0.756.

First: TATACTTGTGTAAACACTTTGGATGGGTTGA [3d831]
Second: TATACTTGTGTAAGAACTTTGGATGGGTTGA [3d833]
The fraction ligated of the first is lower: 0.799 for the first, 0.814 for the second.

Going from TATACTTGTGTAAGACACTTGGATGGGTTGA [3d836] to TATACTTGTGTAAGACACTTTGATGGGTTGA [3d837], the fraction ligated rises from 0.756 to 0.81.

First: TATACTTGTGTAAGACACTTTGGAGGGTTGA [3d839]
Second: TATACTTGTGTAAGACACTTTGGATGGGTTA [3d841]
The fraction ligated of the first is lower: 0.0723 for the first, 0.134 for the second.

Compared with TATACTTGTGTAAGACACTTTGGATGGGTTG [3d842], TATACTTGTGTAAGACACTTTGGATGGGTTGA [2d74] is lower in fraction ligated: 0.809 for the first, 0.805 for the second.

First: TATACTTGTGTAAGACACTTTGGATGGTTGA [3d840]
Second: TATACTTGTGTAAGACACTTTGGTGGGTTGA [3d838]
The fraction ligated of the first is higher: 0.109 for the first, 0.0565 for the second.

Compared with TATACTTGTGTAAGACATTTGGATGGGTTGA [3d835], TATACTTGTGTAAGACCTTTGGATGGGTTGA [3d834] is lower in fraction ligated: 0.764 for the first, 0.721 for the second.

TATACTTGTGTAAGCACTTTGGATGGGTTGA [3d832] and TATACTTGTGTAGACACTTTGGATGGGTTGA [3d830] are the same in fraction ligated: 0.776 for the first, 0.776 for the second.

Going from TATACTTGTTAAGACACTTTGGATGGGTTGA [3d828] to TATACTTTCGAAGACACTTTGGATGGGTTGA [3d798], the fraction ligated falls from 0.793 to 0.451.

Compared with TATACTTTCGTAAACACTTTGGATGGGTTGA [3d800], TATACTTTCGTAAGAACTTTGGATGGGTTGA [3d802] is higher in fraction ligated: 0.307 for the first, 0.778 for the second.

First: TATACTTTCGTAAGACACTTGGATGGGTTGA [3d805]
Second: TATACTTTCGTAAGACACTTTGATGGGTTGA [3d806]
The fraction ligated of the first is higher: 0.43 for the first, 0.105 for the second.

Compared with TATACTTTCGTAAGACACTTTGGAGGGTTGA [3d808], TATACTTTCGTAAGACACTTTGGATGGGTTA [3d810] is lower in fraction ligated: 0.00847 for the first, 0.00702 for the second.

Compared with TATACTTTCGTAAGACACTTTGGATGGGTTG [3d811], TATACTTTCGTAAGACACTTTGGATGGGTTGA [2d72] is higher in fraction ligated: 0.145 for the first, 0.542 for the second.

First: TATACTTTCGTAAGACACTTTGGATGGTTGA [3d809]
Second: TATACTTTCGTAAGACACTTTGGTGGGTTGA [3d807]
The fraction ligated of the first is higher: 0.0312 for the first, 0.00703 for the second.

Compared with TATACTTTCGTAAGACATTTGGATGGGTTGA [3d804], TATACTTTCGTAAGACCTTTGGATGGGTTGA [3d803] is lower in fraction ligated: 0.754 for the first, 0.53 for the second.

First: TATACTTTCGTAAGCACTTTGGATGGGTTGA [3d801]
Second: TATACTTTCGTAGACACTTTGGATGGGTTGA [3d799]
The fraction ligated of the first is higher: 0.539 for the first, 0.268 for the second.

Going from TATACTTTCTAAGACACTTTGGATGGGTTGA [3d797] to TATACTTTGTAAGACACTTTGGATGGGTTGA [3d796], the fraction ligated rises from 0.562 to 0.74.

Going from TATATGTCGTAAGACACTTTGGATGGGTTGA [3d758] to TATATTGCGTAAGACACTTTGGATGGGTTGA [3d760], the fraction ligated falls from 0.57 to 0.355.

Compared with TATATTGTCGAAGACACTTTGGATGGGTTGA [3d763], TATATTGTCGTAAACACTTTGGATGGGTTGA [3d765] is lower in fraction ligated: 0.376 for the first, 0.367 for the second.

First: TATATTGTCGTAAGAACTTTGGATGGGTTGA [3d767]
Second: TATATTGTCGTAAGACACTTGGATGGGTTGA [3d770]
The fraction ligated of the first is lower: 0.468 for the first, 0.641 for the second.

First: TATATTGTCGTAAGACACTTTGATGGGTTGA [3d771]
Second: TATATTGTCGTAAGACACTTTGGAGGGTTGA [3d773]
The fraction ligated of the first is higher: 0.288 for the first, 0.0159 for the second.

First: TATATTGTCGTAAGACACTTTGGATGGGTTA [3d775]
Second: TATATTGTCGTAAGACACTTTGGATGGGTTG [3d776]
The fraction ligated of the first is lower: 0.0168 for the first, 0.214 for the second.

Going from TATATTGTCGTAAGACACTTTGGATGGGTTGA [2d70] to TATATTGTCGTAAGACACTTTGGATGGTTGA [3d774], the fraction ligated falls from 0.61 to 0.0779.

Compared with TATATTGTCGTAAGACACTTTGGTGGGTTGA [3d772], TATATTGTCGTAAGACATTTGGATGGGTTGA [3d769] is higher in fraction ligated: 0.0169 for the first, 0.632 for the second.

Going from TATATTGTCGTAAGACCTTTGGATGGGTTGA [3d768] to TATATTGTCGTAAGCACTTTGGATGGGTTGA [3d766], the fraction ligated falls from 0.468 to 0.411.

Going from TATATTGTCGTAGACACTTTGGATGGGTTGA [3d764] to TATATTGTCTAAGACACTTTGGATGGGTTGA [3d762], the fraction ligated falls from 0.499 to 0.27.

Going from TATATTGTGTAAGACACTTTGGATGGGTTGA [3d761] to TATATTTCGTAAGACACTTTGGATGGGTTGA [3d759], the fraction ligated falls from 0.778 to 0.245.

Compared with “TATCACGCGTAAGACACTTTGGATGGGTTGA [3d1294]”, “TATCACGTCGAAGACACTTTGGATGGGTTGA [3d1297]” is lower in fraction ligated: 0.814 for the first, 0.781 for the second.

For “TATCACGTCGTAAACACTTTGGATGGGTTGA [3d1299]”, the fraction ligated was 0.787.
